# Measured values reported in PMC3299909 (Molecular Cell, 2012).
# B1: Exo84 (bone marrow-derived macrophages) (natural protein, UniProt Q6PGF7 1-716, looked up)
# chain: MSDSGASRLRRQLESGGFEARLYVKQLSQQSDGDRDLQEHRQRVQALAEETAQNLKRNVYQNYRQFIETAREISYLESEMYQLSHLLTEQKSSLESIPLALLPAAAAGASAGEDTAGAGPRERGAVQAGFLPGPAGVPREGSGTGEEGKQRTLTTLLEKVEGCRDLLETPGQYLVYNGDLVEYDADHMAQLQRVHGFLMNDCLLVATWLPQRRGMYRYNALYPLDRLAVVNVKDNPPMKDMFKLLMFPESRIFQAENAKIKREWLEVLEETKRALSDKRRREQEEAAAPRAPPPVTSKGSNPFEDEDDEELATPEAEEEKVDLSMEWIQELPEDLDVCIAQRDFEGAVDLLDKLNHYLEDKPSPPPVKELRAKVDERVRQLTEVLVFELSPDRSLRGGPKATRRAVSQLIRLGQCTKACELFLRNRAAAVHTAIRQLRIEGATLLYIHKLCHVFFTSLLETAREFETDFAGTDSGCYSAFVVWARSAMGMFVDAFSKQVFDSKESLSTAAECVKVAKEHCQQLGEIGLDLTFIIHALLVKDIQGALHSYKEIIIEATKHRNSEEMWRRMNLMTPEALGKLKEEMKSCGVSNFEQYTGDDCWVNLSYTVVAFTKQTMGFLEEALKLYFPELHMVLLESLVEIILVAVQHVDYSLRCEQDPEKKAFIRQNASFLYETVLPVVERRFEEGVGKPAKQLQDLRNASRLLRVNPESTTSVV
# Biological target: Sec5 (bone marrow-derived macrophages) (mouse (endogenous in bone …, UniProt Q9D4H1 1-924))
# Sequence (Q9D4H1 whole entry): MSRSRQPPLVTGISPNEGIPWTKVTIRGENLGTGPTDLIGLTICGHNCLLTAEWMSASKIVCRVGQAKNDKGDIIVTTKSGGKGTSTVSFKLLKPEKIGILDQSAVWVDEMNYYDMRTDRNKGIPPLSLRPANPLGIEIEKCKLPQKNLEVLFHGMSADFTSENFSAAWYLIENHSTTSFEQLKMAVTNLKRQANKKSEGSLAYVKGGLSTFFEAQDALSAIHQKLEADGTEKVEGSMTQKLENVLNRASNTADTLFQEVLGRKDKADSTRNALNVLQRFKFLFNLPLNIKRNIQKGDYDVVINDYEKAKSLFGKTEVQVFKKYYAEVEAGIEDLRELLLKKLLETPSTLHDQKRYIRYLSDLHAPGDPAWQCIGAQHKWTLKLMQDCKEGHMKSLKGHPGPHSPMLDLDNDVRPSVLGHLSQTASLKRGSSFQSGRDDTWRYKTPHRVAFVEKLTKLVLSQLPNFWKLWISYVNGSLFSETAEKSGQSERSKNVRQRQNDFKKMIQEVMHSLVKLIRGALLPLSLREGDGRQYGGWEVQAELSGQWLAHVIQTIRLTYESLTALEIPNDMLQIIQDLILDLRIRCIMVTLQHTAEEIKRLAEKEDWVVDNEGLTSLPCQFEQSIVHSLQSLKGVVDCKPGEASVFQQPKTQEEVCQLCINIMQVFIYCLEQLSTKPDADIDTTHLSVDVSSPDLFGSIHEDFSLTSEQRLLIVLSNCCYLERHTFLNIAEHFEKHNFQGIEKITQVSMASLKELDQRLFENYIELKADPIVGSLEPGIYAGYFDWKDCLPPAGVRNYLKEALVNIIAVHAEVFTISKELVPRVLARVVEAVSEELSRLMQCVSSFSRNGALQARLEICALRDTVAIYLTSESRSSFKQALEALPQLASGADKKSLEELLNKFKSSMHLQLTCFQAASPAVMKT
# Experiment: co-IP
binder,measurement,value
B1,fold increase of the association in Tipe2-/- cells over wild type cells,~3 fold
